T1: ANAC017 (lacking C-terminal transmembrane domain) (Arabidopsis thaliana, UniProt Q9XIC5 1-525)
T1 sequence: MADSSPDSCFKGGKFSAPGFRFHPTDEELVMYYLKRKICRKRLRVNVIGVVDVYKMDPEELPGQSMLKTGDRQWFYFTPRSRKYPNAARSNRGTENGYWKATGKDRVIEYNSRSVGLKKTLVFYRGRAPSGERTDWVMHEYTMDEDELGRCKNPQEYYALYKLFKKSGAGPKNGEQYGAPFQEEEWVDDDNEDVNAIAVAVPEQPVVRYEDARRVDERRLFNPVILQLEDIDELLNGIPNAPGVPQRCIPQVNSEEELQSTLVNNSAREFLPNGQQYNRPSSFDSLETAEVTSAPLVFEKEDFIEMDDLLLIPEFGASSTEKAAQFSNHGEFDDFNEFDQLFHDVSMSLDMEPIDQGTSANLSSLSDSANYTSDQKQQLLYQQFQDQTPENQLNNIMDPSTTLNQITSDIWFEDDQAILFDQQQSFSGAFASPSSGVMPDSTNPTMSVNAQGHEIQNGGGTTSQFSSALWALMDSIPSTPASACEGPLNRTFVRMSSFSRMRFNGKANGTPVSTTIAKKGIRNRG

B1: ANAC016 intron 1 MDM2 probe (dsDNA)
DNA 1: GATTTGTTGAGTATATGACAAGGAAACGTCTTTATTCACT
DNA 2: AGTGAATAAAGACGTTTCCTTGTCATATACTCAACAAATC
B2: ANAC016 intron 1 MDM1 probe (dsDNA)
DNA 1: GATGTAGTTGAGTATATGACAAGGAAAAGTTTTGGTTGTT
DNA 2: AACAACCAAAACTTTTCCTTGTCATATACTCAACTACATC

Tests used:
[1] = target: T1, ANAC017 (lacking C-terminal …); assay: EMSA; clear shift, less than MDM1; Binding reactions as in Ng et al. 2013 (buffer, pH, temperature not given); 12% acrylamide 0.5x TBE gels; settings: protein: recombinant; tags: GST (pDEST15); chain copies: 2; label: 32P 5' end (T4 PNK)
[2] = target: T1, ANAC017 (lacking C-terminal …); assay: EMSA; stronger than MDM2; Binding reactions as in Ng et al. 2013 (buffer, pH, temperature not given); 12% acrylamide 0.5x TBE gels; settings: protein: recombinant; tags: GST (pDEST15); chain copies: 2; label: 32P 5' end (T4 PNK)

Binder	binding result [1]	binding result [2]
B1	binds	
B2		binds

Reference: article PMC8331134, “Increased expression of ANAC017 primes for accelerated senescence”
